The source of these data is IntAct's records for PubMed 23395182.

The labels stand for the following.
B1: Syndecan-1 (Homo sapiens), P18827 (parent)
chain: MRRAALWLWLCALALSLQPALPQIVATNLPPEDQDGSGDDSDNFSGSGAGALQDITLSQQTPSTWKDTQLLTAIPTSPEPTGLEATAASTSTLPAGEGPKEGEAVVLPEVEPGLTAREQEATPRPRETTQLPTTHLASTTTATTAQEPATSHPHRDMQPGHHETSTPAGPSQADLHTPHTEDGGPSATERAAEDGASSQLPAAEGSGEQDFTFETSGENTAVVAVEPDRRNQSPVDQGATGASQGLLDRKEVLGGVIAGGLVGLIFAVCLVGFMLYRMKKKDEGSYSLEEPKQANGGAYQKPTKQEEFYA
B2: Rho guanine nucleotide exchange factor TIAM1 (Homo sapiens), Q13009 (parent)
chain: MGNAESQHVEHEFYGEKHASLGRKHTSRSLRLSHKTRRTRHASSGKVIHRNSEVSTRSSSTPSIPQSLAENGLEPFSQDGTLEDFGSPIWVDRVDMGLRPVSYTDSSVTPSVDSSIVLTAASVQSMPDTEESRLYGDDATYLAEGGRRQHSYTSNGPTFMETASFKKKRSKSADIWREDSLEFSLSDLSQEHLTSNEEILGSAEEKDCEEARGMETRASPRQLSTCQRANSLGDLYAQKNSGVTANGGPGSKFAGYCRNLVSDIPNLANHKMPPAAAEETPPYSNYNTLPCRKSHCLSEGATNPQISHSNSMQGRRAKTTQDVNAGEGSEFADSGIEGATTDTDLLSRRSNATNSSYSPTTGRAFVGSDSGSSSTGDAARQGVYENFRRELEMSTTNSESLEEAGSAHSDEQSSGTLSSPGQSDILLTAAQGTVRKAGALAVKNFLVHKKNKKVESATRRKWKHYWVSLKGCTLFFYESDGRSGIDHNSIPKHAVWVENSIVQAVPEHPKKDFVFCLSNSLGDAFLFQTTSQTELENWITAIHSACATAVARHHHKEDTLRLLKSEIKKLEQKIDMDEKMKKMGEMQLSSVTDSKKKKTILDQIFVWEQNLEQFQMDLFRFRCYLASLQGGELPNPKRLLAFASRPTKVAMGRLGIFSVSSFHALVAARTGETGVRRRTQAMSRSASKRRSRFSSLWGLDTTSKKKQGRPSINQVFGEGTEAVKKSLEGIFDDIVPDGKREKEVVLPNVHQHNPDCDIWVHEYFTPSWFCLPNNQPALTVVRPGDTARDTLELICKTHQLDHSAHYLRLKFLIENKMQLYVPQPEEDIYELLYKEIEICPKVTQSIHIEKSDTAADTYGFSLSSVEEDGIRRLYVNSVKETGLASKKGLKAGDEILEINNRAADALNSSMLKDFLSQPSLGLLVRTYPELEEGVELLESPPHRVDGPADLGESPLAFLTSNPGHSLCSEQGSSAETAPEETEGPDLESSDETDHSSKSTEQVAAFCRSLHEMNPSDQSPSPQDSTGPQLATMRQLSDADKLRKVICELLETERTYVKDLNCLMERYLKPLQKETFLTQDELDVLFGNLTEMVEFQVEFLKTLEDGVRLVPDLEKLEKVDQFKKVLFSLGGSFLYYADRFKLYSAFCASHTKVPKVLVKAKTDTAFKAFLDAQNPKQQHSSTLESYLIKPIQRILKYPLLLRELFALTDAESEEHYHLDVAIKTMNKVASHINEMQKIHEEFGAVFDQLIAEQTGEKKEVADLSMGDLLLHTTVIWLNPPASLGKWKKEPELAAFVFKTAVVLVYKDGSKQKKKLVGSHRLSIYEDWDPFRFRHMIPTEALQVRALASADAEANAVCEIVHVKSESEGRPERVFHLCCSSPESRKDFLKAVHSILRDKHRRQLLKTESLPSSQQYVPFGGKRLCALKGARPAMSRAVSAPSKSLGRRRRRLARNRFTIDSDAVSASSPEKESQQPPGGGDTDRWVEEQFDLAQYEEQDDIKETDILSDDDEFCESVKGASVDRDLQERLQATSISQRERGRKTLDSHASRMAQLKKQAALSGINGGLESASEEVIWVRREDFAPSRKLNTEI
partner: B1 chain

The variants in one assay derive from B1. As to conditions: with tiam1_human TIAM1, Q13009.
Consider MRRAALWLWLCALALSLQPALPQIVATNLPPEDQDGSGDDSDNFSGSGAGALQDITLSQQTPSTWKDTQLLTAIPTSPEPTGLEATAASTSTLPAGEGPKEGEAVVLPEVEPGLTAREQEATPRPRETTQLPTTHLASTTTATTAQEPATSHPHRDMQPGHHETSTPAGPSQADLHTPHTEDGGPSATERAAEDGASSQLPAAEGSGEQDFTFETSGENTAVVAVEPDRRNQSPVDQGATGASQGLLDRKEVLGGVIAGGLVGLIFAVCLVGFMLYRMKKKDEGSYSLEEPKQANGGAYQKPTKQKEFYA [E306K], for which the “effect of a mutation on the interaction” value is given as “decreasing interaction strength”.

Variants of B2 are the subject of the next assay. As to conditions: with sdc1_human SDC1, P18827.
With K912E, the “effect of a mutation on the interaction” value is recorded as “decreasing interaction strength”. Consider K879E, for which the “effect of a mutation on the interaction” value is given as “decreasing interaction strength”.
